Laboratory results: a protein production outcome set (Wang et al. 2014)

Assay: label from the status in PepcDB records

Sequence	protein production
MIGKEVLNYTIVSLIGKGGMGSVYLAEHKYIKQQKVAIKVINSDMVNDFTRQRLKEEAEHLASLNHQNIVRFHDYHIDELGSIYLIMEYADGISLDKYIQTVSGLIVEDKICPLFEPILDAVEYAHEHNIIHRDIKPANIIITKEGIPKILDFGIATIINRESVEKDDMVMGTPSYMSPEQVRGDHLDSRSDIYSLGVMLHQMLTGNAPYDTTTLTEYDINKKVVEEPLPRMRTYYKYVSDKVQKIVDKATAKEPGERYQTCDDFKKALHRVIYPPKIPKWVWTSVAAIVLLMIGGGVYFWDYNRTKVYYYKDYVEQWGVPQGIGELSSREMSHVNRLYRFEYKKHKLQRMSHVNSKENIIEDGESERNERPLDMLLYYTDKGNISRAKVLDRSGKVLYVKSYNDKLNTVIFQYDDEYGTEKTLGAQTIGYVRALEDNGVEKGKISRWLLEYDENGYVSTIRYAGFQNVLVGDAHNIYGRKYVRDEKGRVLSEHYLSFDGTPKATKWGLGMKKFYYDENDNWVKAEYLTVDGKPAYDDADGIGVYVMEYDKYGNVVYALHQDADGKLMLPKKNGVAGIKYIYDQHGFPIEASYLDIDRKACFIPNDGFSKVVRKFDDNGYIINQTFYDVDGNQCLSNDGNSSAKYINDNRGNVQEMWFYGLDGKLNEINEGYAGVKLNYDSIGNIIEYVTYGIDQKPCLKSDGTAGYKAEYNDMNLITKLVNIGVDLSPCKDNNGIVIAARDYDKRGNQIKVSFYDAGGKTLVLSNENIAGWNSVYDDNGNETERSFFDDKNNLTVCAGSCAKWISKFDEQGNETNLRYYNLSGKLMMVNGSAGANYKRDKRGNILEKIEIGTDEQLASGKLIARYKYDKFDNQIEFSVYDRNNKPALNSLDYHKYVCIYNSRNQRIEIEYYGKDGELTSYNNDKYAIQKDEYDERGYIVRTSYYGKDKQLVVSNEGWASSTREYDVLGNVLKQSFFGIDGKPTDPKVMVPEGLCRYDRWGNRIYLAAGDGKGHLIINPKTGWSIQKSEYNSRGKLLSEAYFDENEKPLISRMDGYHKAVISYTSSGNEKEKCYYDIMNKPMLCPDGYFKEVYEYNDNQQAISLSYLGVNGKSIDCKDGYSKIELTYNKDGEMESRKYTNASGRILLTQKWNGKEWVNSSPEPISRNWQQDVRKFNAELPIDFGENTKHLVASSFLVTGSNSCELSFKTPKSKYEMTEAEVNEYFASIKLVVTKIKSESLPSSVVITGILFDSKGRQLRSIRK	failed
MIGLMIRVAGQLGRYARLLPATAGMVLVLQVAAQADVLTINGGAKFTNYPMVTLGINAALHGGTVQAMRFSIDDSTWTDWEPVAASKRFKLTEPLSLSFYDVFLQFQQDGVAVPDPPYPAAIVYDDLIDTGFFGGQGVALLGGTGSDRGKGVVVQPDGKLLVVGTVEQAAGNTDIVLWRLTAQGEPDTGFGVQGSVVIDAGTADRAAGVALQGDGKILVLGTVGSATTAWEVRRYDSAGVLDTSFGTGGKYQEGASGANEAGNLLVQPDGRIVIIGSRDVAGAKKIQVIRLTATGVLDSAFNGNTGYYRPNLPGNSFGNGVALQADGKILLVGTYANPSGETDLFVQRLKTDGTLDNFNDGLNNFFMAGDAGNDEGLGIAVQPDGKIVVVGAYQWGAGDTDIWVLRLNENGTRDNDFNAPVGDYKDGDVYNDRAEALVIQPDGKIVVVGSFGYATDTDILVFRLNADGTTDNTIYNFYGFYTINSGDDEGQGVALQPDGNIVLVSTFTREEGDTDIHVHRIFGRKETLSVSTTGGGSVADDLGAFTWVDLSGEGDYLQGDSVALTAAPATGYVFTGWGGDCAGTSPVCTVTMDGAKNVTASFSLDRPAAPTGLSGVPGNGTAGISWTASQESGITGYKVYYGITSGNYATPDPVGTTPAHVISGLMNGVTYYIAVSVLKNGVEGPKSAEITVTPGINLSVTVVGTGGGTVSSAPGGISCLDGSGCSAVFNAAPVVLSATPSAGSIFAGWSGACSGTDGCTVTQYGPVAVTATFTKMPPVKLTAGTTSYYSTIAEAYAACIGGTSCTIETQATELAGNVTLANAIAVLFKGGYDATFSSSPGLTTLQGVVTVGRGSLTAQNVVIR	failed
MIGLSKSRGALSMENQKMPEYETIRAAVAGEKWAVEKVVDCYKDEIDRLSTVAVRQPDGSTKQEINEDMRQSITKKLIEALPQFPLEEMEKGNVR	failed
MIGVVATLKVQPAKAAEFEKVFLDLAAKVKANEPGCLVYQLTRSKTEEGVYKVLELYASMDALKHHGGTDYFKAAGAAMGPTMAGAPVIEYLDAVE	not failed
MIGWTLGQYFFIRYLKMTCYFLGGIFVLALLIDFTENSGRLSSLPRYTAKDAFLISVLRIPFIMQQLIPFIALFSAMAMLISLNRKSELVVTRSIGISAWQFLMPACFGAFLFGLFSILLVNPLAAWGFSQAERMMTEWRSKNNNVLTSLHNTRILWLTQRTHSGRTTIGAKSITDQGLSLIDATFVQYNDNATIKNWINSRKATLINGAWLLTDGTIYKIGHPPEKFSELQIQTTLKPEFLTERLVNPATIPFYQLPTKIMIARSFGYSANNFDMYLQSLIALPALLIAMTLIAAVVSLNFTRFGQSKILILGGVIAGFSLYVISILVQAFGNAGYIPPIIAAWTPVFIALFLGISFLLHKEDG	failed
MIIDINRLDRAFDLIKEGVSKGVFPGAVAAVGTRERVIRLESFGNRCLYPEKLSMNKDTLFDLASLTKVVATNTLFMIFLEKGLISVYDNVSYYLEKFKGKNKDDVTIFNLLTHTAGFVPCKPLYKLCKGYEDSIDYICRCGLSYKPGTKCVYSDFSYILLAYILEKIGGDTLDILCDRYIFKPLYMENTTFKPKGNNIAATEIDKKTKKPLIGVCHDENGRFFGGISGHAGLFSDIYDLCKFSNMLVNEGKGIISYASFKAMTTNHTLGLEDNRGYGWCIKGDKNSFMGDIAFPETFGHNGFTGTSLWVDIKNNIYAILLTNRVHPTRDNLRIIRFRRVFSNAVLASLTRLEHHHHHH	failed
MIIKFTVVICTYNGAKRLPKVLDELQNQIDTEAISWEILVVDNNSTDSTKQVVQQYQNTCFKPGQLRYSFEPEQGLAIARQHAVTAARGELIGFLDDDNIPSLTWVASAYLFAQNHPCAGAYGSRIQGEFEVPPPDDFKRIAALLALTERGSKKLLYEPKKKVLPPGAGLVVRKQAWLENVPKRCFLQGRVCEPYLPGEDLEALLHIQQAGWDIWYNPEMQITHQIPHWRLKKDYLVDLCRGIGLSRYHTRMLSVKPWQAPVLFWLYIFNDVRKLILHLYKYRGRVKSDLIAACELELFIGSLLSPPYIWKAYIKKYFRKQRPVSFSSSVRCADYTQN	failed
MIIKGRAHKFGDDVDTDAIIPGPYLRTTDPYELASHCMAGIDENFPKKVKEGDVIVAGENFGCGSSREQAVIAIKYCGIKAVIAKSFARIFYRNAINVGLIPIIANTDEIKDGDIVEIDLDKEEIVITNKNKTIKCETPKGLEREILAAGGLVNYLKKRKLIQSKKGVKT	not failed
MIILKGNKIDYLFLLFGLLGLSTMIYSYLSFSLDVISRNSCTINSVISCSSVENSIYSTFLGIKLYYYGMAYFSAIIVLSLLVVKGTVKNIIGYVISLLSIIASIISVYLIYTEIFLLGHMCIVCTLAHVSIFSVLILSVIKFKV	failed
MIINITILEDNESDFITLSDSIKKWAANTGILINIIWLNSYKKFIKSLPTLKCDLFFSDIELNCNNSFTGIDACKQLRESGYTGIIIFLTAFKEYVFDGYDVQAFNYLLKPINYGTINNCLDKFIHLFSREFYYYHKGNDIISIPYNDIMYIEKNGHDVILHTTSNVFVERISLNEISKRLPVFFIRAHKSYIVNINKVLSLRINELFLPNNVTIPVSRSYLTNIKKKLLEIAR	failed
MIIPTVPTTDELLDKGFRRARKAASLKRSSKIPGQKKAKVIESTRVQTACQVIRDRLKMIIQRIPDIESLPEFYQDYIDVTVGVDELKKSLGALNWAVGILNQLESDYMARIKRSKPSDASHLRREAFGRISSVIKRIEGDLDFLDFAKNKLRNMPTVDLDAFTVVIAGFPNVGKSTLLRTLTGAEPEVADYPFTTKGIQIGHLERKWKRIQVIDTPGLLDRPVEDMNNIELQAMVALENIADVIMFIFDASETCGYTLESQYSLYLGIRSVFDIPVVTVFNKMDLAENVKYLEEYINMVEDPLKVSAFEGRGVSKIIKKLEGLYEKETREAHDNV	failed
MIIPVRRFTPNAYIMRILVSIIVFLCIGWIGRVTELEENFITQNKPVEVGTFVTFTINIPDGSEIPYVAWDFGDGSGLGRYRKSLSVSYTFTEPGVYQVYARIQGEDFPLTVIQTVYKPTQKPAPAHSSTIVIDTVHQKVWAVNTDNNSVAYIDALNNTLLSEIPVGKQPRTVALDKDGNAWVANEEDASISVIAAATGQVLQTIILPYASRPYGICFDPQKDFCYVTLQGTGELVKIEAIGREIVESVHVGRSPRGIAVTSDGSQMLVTQFISPEENGLVRLIDTKTMHVQQEIVLAFDVTPDFEDRGRGVPNFLSSITITPDGTEAWVPSKKDNTARGMFRDGLALEFDNTVRTIVSRIDLSTMTENSQMRTDINDADMACAVEFSPYGNIAFVALQGVNKITMIDVASNSRLGLLDSTGLAPQGLVINADGSRLFVHNFLTRTVKVFNTEDIVLSNNFTPVVAATISTIITEKLAPQVLEGKQIFYNAADERMTFAGYISCASCHLDGASDERVWDFTDRGEGFRNTHSLLGRGGMDMGNVHWTSNFDEIQDFENDMRNGFKGKGFLPDAVFALVSDPLGNPKAGLSRELDALAAYVTSLNKVHASPYRNNDGSLTADGIEGEILFQELGCGSCHAGQDFTDRKTGVLHDVGTEQPSSGERRTLALTGFGTPTLKGIWETAPYLHDGSALTLKDVLVTRNAEKKHGDLSNLTETELDKLVAYLLQIDDNQDAVITALLFPIKREFVAMRIFPNPASESANVQLTNIVKSSGTIRIYNVIGHLLMTVLVEGMNEINLDVSQLNSGVYVVEYSDDTSKYSQKMVIQ	failed
MIIRIVQNIQRINKEGNAPLYISFYLGKEKVVIPCKLSVPTTKFDSKTGMLRGTNKEAKDINLIIERLKAKVNDILVKHRLKNLTLNKEAFMREYNNPSDFKSFHDFVASYMKTYSRRLEIGTFRHHKSCMRKFKEYCEGLQFHELTEDFLRDYLIYMKKTLCNADSTAQRNLSTIKIYVSAAIKKGYMENDPFKDFGVKRIKSNIDYLTEEELIKFISLYYDRRLPERLERTLGFFLFMCFTSLHISDARHVCLEQINNGILTYYRIKNRNCKPEAIKIPLSIPAFKIIEELQGKRKEGHLFTSLQCDQVVNRQIKEIASILEIKKKVSAKTGRHTFATIFLKKTKDVATLQKLLGHSNLKETMIYAHVLDESKQEGMQCFNSFAI	failed
MIKAILIFNNHGKPRLCKFYQHYSEDTQQQIIRETFHLVSKRDENVCNFLEGGLLIGGSDNKLIYRHYATLYFVFCVDSSESELGILDLIQVFVETLDKCFENVCELDLIFHVDKVHNILAEMVMGGMVLETNMNEIVTQIDA	not failed
MIKGFRLWILIVSLGLSFSFLGYQWLTRYNFNTDHQVGDVIDSLNGVEIYYNGGVNTNEGRNLSLDGYNLGIKYQCVEFVKRYFYQRYQHQMPDSFGHARDFFDNLLTDGSWNEKRALRQFTNGSQSKPMADDLLVFAPWILNPYGHVAIIAAVTDKGIEIAQQNPGPFAPSREYFPLIQRDGLWYIDAPRAKGWLRWEATSPNVATENSGFIDPVMVIKELEHHHHHH	not failed
MIKIAIVGFGTVGQGVAELLIRKREEIEKAIGEFKVTAVADSKSSISGDFSLVEALRMKRETGMLRDDAKAIEVVRSADYDVLIEASVTRVDGGEGVNYIREALKRGKHVVTSNKGPLVAEFHGLMSLAERNGVRLMYEATVGGAMPVVKLAKRYLALCEIESVKGIFNGTCNYILSRMEEERLPYEHILKEAQELGYAEADPSYDVEGIDAALKLVIIANTIGVKASYEDVEVTGITQITPEAFQVAAEKGYTIRLIAEVSREKLKVSPRLVPFHHPLAIKGTMNAAMFKTDTAGSIFVAGRGAGKEETASAILSDLYEIYAGPR	failed
